Assay results published in paper PMC11357225.
“And” between values parts separate entries of the source, which are not always exact repeats. Identical values can stand only once.

Tests used:
[1] = biological target: human lactoferrin (human); test: SPR
[2] = biological target: human lactoferrin (human)
[3] = biological target: human lactoferrin (human); test: native gel or EMSA

Substance | Kd [1] | percent of input bound [2] | stoichiometry N [3] | koff [1] | kon [1]
SARS-CoV-2 spike protein (S-protein), ancestral Wuhan-like variant (from UniProt P0DTC2 14-1213) (natural protein) | 4.32 nM | 60% | – | – | –
receptor-binding domain of the SARS-CoV-2 S-protein, ancestral Wuhan-like variant (from UniProt P0DTC2) (domain or fragment) | 1260 nM and 1310 nM | 30% | 1 | 0.308 s⁻¹ | 245000 M⁻¹ s⁻¹
